According to a protein production outcome set (Wang et al. 2014):

Test: label from the status in PepcDB records

## MSLSFMIGYSWTQTEPGQVNHILDQFLSSMVREAGAVNYFVLPFPFSEDRSQIDIYRDLIRSGNVDGFVLSSINYNDPRVQFLLKQKFPFVAFGRSNPDWDFAWVDIDGTAGTRQAVEYLIGRGHRRIAILAWPEDSRVGNDRLQGYLEAMQTAQLPIETGYILRGEGTFEVGRAMTLHLLDLSPERRPTAIMTLNDTMAIGAMAAARERGLTIGTDLAIIGFDDAPMVQYLFPPLSSVRQPIAEAGRKCIELLVAIVEGREPEQKHILLQPSLIIRASEGLITITTDPNSSSVDKLAAALEHHHHHH
  protein production: not failed

## MSSSEIQTKNSEVQVKEMVAHKWDLASETFDTHAGHGIQTQKERDAWKRAFLKVFPGKSLKILDVGCGTGELSLLFAEMGHEVAGIDISGQMLKIAKAKAEALGADITFREGDAENPPFDTSSYDIVFSRHLLWTLPNPKVAVENWNRILRKNGKVVIVDGVWDSGTLGSRARKNAGALLTLLLERKDPRKGHSDYSDELKAQLPHFGGAPLEKVNEYLSNSGFGNIQIFDLKEVRDAQKEKMPLGERVVRSYQYYLICGRK
  protein production: failed

## MELSAVGERVFAAEALLKRRIRKGRMEYLVKWKGWSQKYSTWEPEENILDARLLAAFEEREREMELYGPKKRGPKPKTFLLKAQAKAKAKTYEFRSDSARGIRIPYPGRSPQDLASTSRAREGLRNMGLSPPASSTSTSSTCRAEAPRDRDRDRDRDRERDRERERERERERERERERERGTSRVDDKPSSPGDSSKKRGPKPRKELPDPSQRPLGEPSAGLGEYLKGRKLDDTPSGAGKFPAGHSVIQLARRQDSDLVQCGVTSPSSAEATGKLAVDTFPARVIKHRAAFLEAKGQGALDPNGTRVRHGSGPPSSGGGLYRDMGAQGGRPSLIARIPVARILGDPEEESWSPSLTNLEKVVVTDVTSNFLTVTIKESNTDQGFFKEKR
  protein production: failed

## MEVNNETMQKSKFGRICVFCGSSQGKKSSYQDAAVDLGNELVLRNIDLVYGGGSIGLMGLVSQAVHDGGRHVIGVIPKTLMPRELTGETVGEVRAVADMHQRKAEMARHSDAFIALPGGYGTLEELLEVITWAQLGIHDKPVGLLNVDGYYNSLLSFIDKAVEEGFISTNARQIIISAPTAKELVKKLEEYSPCHESVATKLCWEIERIDYSSED
  protein production: failed

## MPSFLEISPDKLNRLIGTPGAPRIIDVRTDEDFALDPRLVPGSIRRDHAEVASWADSIDADAVVVVCHRGAKLSHGVAAYLRHAGIEAESLAGGFEAWAAAGPAVPEAKLSRRDAQGRTVWVTRARPKIDRIACPWLIRRFIDPNAVFLFVPAPEVVAVGERFGAAPFDIEDVFWSHRGELCTFDVMVEEFGLASEPLLRLAQIVRAADTARLDLAPEASGLLAASLGLSRMYSDDLEQLEAGMLLYDAFFRWCRDATEETHNWPAPKKRALEHHHHHH
  protein production: not failed

## MSLEPSQIMPLSVLIAEDNDICRLVAAKALEKCTNDITVVTNGLQALQAYQNRQFDVIIMDIQMPVMDGLEAVSEIRNYERTHNTKRASIIAITADTIDDDRPGAELDEYVSKPLNPNQLRDVVLTCHSEGAEGHHHHHH
  protein production: not failed

## MHTTFTFHLYPWILKYLKGGEGNFKYLHQENPKQEITDSSDKMSFWKDRMLIIPAVDIKDGKCVQLVQGKPGTEQVVLDDPAGVAGRWESLGAETIHVVDLDGALGLEKNTGILKEITERVSVPLQIGGGIRSREYAGKLLDMGFERVILGTMAIENPAIVEELAGEYGSERIMVSLDSRDSRVVIRGWTEKVPFTAEEMARKFQERGAGSILFTNVDFEGLLSGFDLKPVSELVEAVEIPVIYSGGVSSLNDLRMLQGTGVMGVVIGSAIYRGLIDLTEALKYQDLK
  protein production: failed

## RRLNDELLGKVVSVVSATERTEWYPALVISPSCNDDITVKKDQCLVRSFIDSKFYSIARKDIKEVDILNLPESELSTKPGLQKASIFLKTRVVPDNWKM
  protein production: failed

## MSLSEIKRKFDAVSGKYDEQRRKFIPCFDDFYGVSVSIASVDTENPDILDLGAGTGLLSAFLMEKYPEATFTLVDMSEKMLEIAKNRFRGNLKVKYIEADYSKYDFEEKYDMVVSALSIHHLEDEDKKELYKRSYSILKESGIFINADLVHGETAFIENLNKTIWRQYVENSGLTEEEIAAGYERSKLDKDIEMNQQLNWLKEAGFRDVSCIYKYYQFAVMFGRKTEGHHHHHH
  protein production: not failed

## MVKDLSDMSLKELWQLFPIFLVEHKEEWEDWYEEEKERLLHLLPSQSIKSISHIGSTAVPDIWAKNIVDILLEVPEKEDLQDFKKRLLDAGYLLMSEGEKRLSFNKGYTKDGFAEKVFHLHLRYQGDNDELYFRDYLREYPEVAKDYERLKLGLWEKYEHNRDAYTDAKSDFIRKYTQKAKKNDKGKDN
  protein production: not failed

## MVWHYSNIMHKKSKAQLQDYFKDLTAIGNASSEQMEANRDGIQGETEENINPPPQNPKKRLSLPNLSSPSLAAEAENLESAGQPGSDYLSNSFGQANKANVAVAPVNSDYIAPEKLEDQPGDFFGGKRWFWLGGILVLLVGGTALTLPKALEMVNGWRQEAQLKAYEQEQHQDSEVLRLALLPPDQRRSKLEAIANQEVLSLERSRARFLLAGDLLAEFEGGPALRVLEGLEVQYPVLAPYILLMRGRGYQLSNENDQAEATWQDILDQYPDSPVVVNALENLGSLDETYWQQAIADHPGHPRTLAILHQQLESEPNALEIQRQILQNHPTDGRTAAVINSLTANRQGELTPEDWQAMGDNFWHRRIYNQAIAPYEKAPSNARNLYRLARAQQISKLDNEAKENYRQLIATYPDSEETALALRRLAELVPPREGVQYLQQLEQQFPDQGASALAARIDLLAKFDANQAQQARQALLQKYPNSDAAADYRWRQAQEFAKAGNYTEAWRWAKEIANQNPQSDVTPKAIFWIGKWAQQLGRSADSKAAFETVLAKYPQSYYAWRSAVLLGWQVGDFNSVRFLNPPVTVPDQRPLPPAGSPTFRELYRLAQDQEAIELFNAEVRARAEGEATPELTVNEGFTEALLKLTQQEYLQGINQVLNLRNPEDPEQRKQWEELRSTRDYWQTLFPFPYQQLIFEWSEKRQVNPFLVTALIRQESRFEKNIQSPVGATGLMQIMPATAEWIAPQIGLKEYSLTDPTDNVNMGTWYFDHTHKTYNNNSALAVASYNAGPGNVAKWLQEFNNADPDLFVERIPFAETKGYVESVFGNYWNYLRIYDPDVEKLMGQVGKN
  protein production: failed

## MLRYSLLVLLGACSYGILAIFVKLAYAEGFSLGEVIGSQYLFGWIILLAITLLFSRHRVPLKQALLLFVAGTSASFTGIFYYASLKTVPASIAIILLFQFVWVGIIIEAVATKTLPSREKVISVIFLLVGTFLSSGLLEQSAGAFDTTGIILGLLSAVTFATYIFVSGKVAVEVPSLPRGVLLMTGALTLVMIVFPPTFIFNGAISQGLWKYGLGLGTFSIVIPSIAFTIGIPKIGSGLATILGAAELPVTTIMSVFVLKEAVLSSQWFGVSLILIGIAIPQIAYAMRGRYRKHHTHKKVAA
  protein production: failed

## MMTITTDRTPPAAGAALDRNRSAYAGLADVLERAGLAEHALYLNWGYRPVDGQPDWAARELPPGELGRMQARLVLEVLGDTPLDGRRVLDVGCGRGGALALMGRLHAPAALAGADISAANIAYCRKRHTHPRLRFQIADACRLPYPDSSMDVVFNLESSGAYPDIGAFFHHVHRILRVGGRFCLADVFDADSVAWVRAALEQAGFTLERERSIPAQVRAARERASPGIWRRLDTALTALDAPGLRRELERYLAAPSSGLFQALEDGRVDYRLFHWRKTCPAAGRIDADVIARLATRSARLDAALQDRAPSAAAPQSPAPGPANASASAWFPFTAPDAQAGFNVFALPYAGGGASVYRAWTLPRRPGAAPWQLCPVQLPGRESRFGEPLIDDMATLADRLADAIGPYAHRPWALLGCSLGCKIAFEVARRFARQGRPPALLFLMACPAPGLPLGRRISTRAEADFAREVCHLGGTPPEVLADAEMMRTLMPILRNDSALAEHYVAAEDATVNVPIVMVAAGDDHLVTVEEARRWQRHAGAGFDWRLVDGGHFFLRQRRRELTDWLLDALRRGERTLPVQTTTTDVPDVPCSTPEQPRDPSRMPAPGASANLVLAPGEILVVTAPRSLAARLTPAVLSDDEQRQLARFAFDADRERYLAAHWAKRRVLGALLAAAPRSLRFGAQAGGKPYLIGEALHFSLSHSGDRVAVAVCRHAPVGVDIEQARGIACHASAARIMHPLDRIAPQCETPEDRFLAAWSLKEAVAKCTGAGLALPFDSLRLAFAGNGRYGCLLGTHAAWEAHHQHEDGVHLAVASATPWAALRILPLDAALAEG
  protein production: failed

## ATITHQEKLLTVDTTAHPFLKALGGHEGTDIFPLFMDPYNGLMVMRASFAPGLTLPLHFHTGTVHMYTISGCWYYTEYPGQKQTAGCYLYEPGGSIHQFNTPRDNEGQTEVIFMLSGCNVNFTQDGTYLGLSDAGVIKNWVDRAIREQDNGLRYIAAAVPTYAA
  protein production: not failed

## MVIRGTNNDDNLIGTTGNDIIEGLGGNDRFEGGRGNDTLTGGTGNDVFNLEQQQDNDVVTDFVRGQDKIDLRNLNINDWATLQLLISNDGQDNALITTFFNGSQSQIKLLNINPNLLQASDFIFNTVNLNQTIDGTNFADQLFGGLGNDTLRGFNGNDVLFGEQGDDRFEGGRGNDTFYGGAGNDVFNLEQQQDNDVVTDFVRGQDKIDLRNLNINDWATLQLLISNDGQDNALITTFFNGSQSQIKLLNINPNLLQASDFIFNTVNLNQTIDGTNFADQLFGGLGNDTLRGFFGNDVLFGEQGDDRFEGGRGNDTFYGGAGNDVFNLEQLQDNDVVTDFVRGQDKIDLRNLNINDWATLQLLISNDGQNNALITTFFNGDQSQIKLLNINPNLLQASDFIFNTVNLNQTIDGTNSPDQLFGGLGNDTLRGFFGNDVLFGEQGDDRFEGGRGNDTFYGGAGNDVFNLEQLQDNDVVTDFVQGQDKIDIRNLNINDWATLQLLISNDGQDNALITTFFNGDQSQIKLLNINPNLLQASDFIFNTVNLNQTIDGTNSPDQLFGGLGNDTLRGFFGNDVLFGEQGDDRFEGGRGNDTFYGGAGNDVFNLEQLQDNDVVIDFVQGQDKIDIRSLNISDWATLQLLISNDGQNNALITTFFNGDQSQIKLNNINPNLLQASDFIFNTNTVNLNQTIDGTNSPDQLFGGLGNDTLRGFFGNDVLFGEQGDDRFEGGAGNDTFYGGTGNDIAVYLGTRSQYQVTSNGGVFTVTDTVANRDGVDTLREVEQIQFSDQTITIGNTSPTITLAVSPASVTEDGTPNLIYTFTRTGSTTNALTVNYSVAGTATLNTDYAQTGAASFTATTGTITFAVGASTAILTINPTADTTVESNETVALTLASGTGYTVGTTTAVTGTITNDDFPSITLAVSPASVTEDGTPNLIYTFTRTGSTTNALTINFGVAGTATLNTDYAQSGAASFTATTGTITFAAGASTAILTINPTADTTVESNETVALTLASGTGYTVGTTTAVTGTITNDDTLPTGITINLSGSQTIVEGNSSPQNVTYTVTLSQASSQIITVQYATANGTATAGSDYTSTTGTLTFNPGETSKVINIPILNDSVNEANETFTLRLTSPTNATLGTTNTVTTTITDTLSASVTTTLPTNVENLTLTGTAAINGTGNAGNNILTGNSGNNILSGGAGNDTYAFVANAALGTDTITETATGGIDTIDFNGSTATVRVNLGVTTSQTVNNNLKLILSANNVIENATGGTGNDRLTGNALNNILAGGNGNDQLQGLAGNDTLWGGLGDDILTGGIGQDKYLFQSSGVFSSSLGVDYISQFDVGQDQIVLSKATFNAVTNSAGQALTDFAVVSDDEFVNASSARIVYSQGSGSLFYNRDGNVLGTSTVFEFARLGNPDITLSSSDFSLIA
  protein production: failed

## MVNDIKKTALAVVTALITAVSAQLSFKIGPVPYTMQNFGVMLSGFLLGPYYGLLSMAIYLALIAFSLPIAAGGGGLGVLIGPTAGFLYGFLISSFLAGVFRRAIWREGSRREVLMLWLSTLVASMPIYLLGFFVFYNFAMIDEKLLIRSESAVRAFNLSFSSPTMVIFAATVLIFLPQDFFVDHLLAVLVFRYVHRMLNERGVEVD
  protein production: failed
